Experimental findings from PMC6429962 (Cell reports, 2019) are described below.

For the assay, the target named is T1, myc-tagged xFZD8 CRD (cysteine-rich domain of Xenopus Frizzled-8) (Xenopus, UniProt O93274 24-144).
T1 sequence (looked up): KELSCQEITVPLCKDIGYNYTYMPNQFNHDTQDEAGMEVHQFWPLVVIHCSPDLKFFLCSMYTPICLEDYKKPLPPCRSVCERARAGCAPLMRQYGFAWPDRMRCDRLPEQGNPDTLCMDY
Nature of the assay: co-IP.

B1: wild-type Xenopus Wnt8 (xWnt8^WT) (ligand, UniProt P28026 23-358, looked up)
chain: AWSVNNFLMTGPKAYLTYSASVAVGAQNGIEECKYQFAWERWNCPESTLQLATHNGLRSATRETSFVHAISSAGVMYTLTRNCSMGDFDNCGCDDSRNGRIGGRGWVWGGCSDNAEFGERISKLFVDGLETGQDARALMNLHNNEAGRLAVKETMKRTCKCHGISGSCSIQTCWLQLAEFRDIGNHLKIKHDQALKLEMDKRKMRSGNSADNRGAIADAFSSVAGSELIFLEDSPDYCLKNISLGLQGTEGRECLQSGKNLSQWERRSCKRLCTDCGLRVEEKKTEIISSCNCKFHWCCTVKCEQCKQVVIKHFCARRERDSNMLNTKRKNRGHRR
modifications: acylation site S187 (palmitoleoyl chain), as the paper says of the wild type
Turning to B1, the “fold more efficient co-immunoprecipitation than xWnt8^S187A” value was roughly 10 fold.

B2: human Wnt3a lacking the acylation site (hWnt3a^S209A) (ligand, UniProt P56704 19-352, looked up)
chain: SYPIWWSLAVGPQYSSLGSQPILCASIPGLVPKQLRFCRNYVEIMPSVAEGIKIGIQECQHQFRGRRWNCTTVHDSLAIFGPVLDKATRESAFVHAIASAGVAFAVTRSCAEGTAAICGCSSRHQGSPGKGWKWGGCSEDIEFGGMVSREFADARENRPDARSAMNRHNNEAGRQAIASHMHLKCKCHGLAGSCEVKTCWWSQPDFRAIGDFLKDKYDSASEMVVEKHRESRGWVETLRPRYTYFKVPTERDLVYYEASPNFCEPNPETGSFGTRDRTCNVSSHGIDGCDLLCCGRGHNARAERRREKCRCVFHWCCYVSCQECTRVYDVHTCK
In the case of B2, the “fold reduction of apparent CRD binding strength against the wild type” value is roughly 10 fold.
